{
  "source": "the domain aggregation screens of Martell et al. (2025)",
  "assay": "soluble fraction after stress (log2 fold change); higher = more stays soluble; pooled small domains, quantitative proteomics",
  "settings": "stress: 50 degC",
  "method_in_brief": "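After stress at 50°C, the amount of each protein still soluble was measured. This was done on pooled custom libraries of small protein domains, using high-throughput quantitative proteomics. The figure given is a base-two log fold change and stands for aggregation propensity, with higher values meaning more protein stays in solution.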",
  "data": [
    {"sequence": "HMNAKKSTLQLDLLKQLLEGNKISLKDFSLSNEISIRTAQRYIEDLLEIFEKNIVKEGDFYSFIS", "values": [
      {"measurement": "soluble fraction (log2)", "result": -2.3}
    ]},
    {"sequence": "HMNAKNPRALAIQYVFKMQMGNFLHAKTDNQQQEQERIMTLFNEENKNTILPRWGKELLSYINRN", "values": [
      {"measurement": "soluble fraction (log2)", "result": -0.695}
    ]},
    {"sequence": "HMNDENIIIEEIKYFIKSNQIKEQEKLPSERNLSELFTVSRFSLRKALRHLVDTGYLYVKDKSGYYYQGD", "values": [
      {"measurement": "soluble fraction (log2)", "result": -2.47}
    ]},
    {"sequence": "HMNDLIKMPYLVGQLYDDVASNQEYADFQFKITEGNDPDKQPGEIMKQDPAADIMVKKNAEVELLVNG", "values": [
      {"measurement": "soluble fraction (log2)", "result": 0.247}
    ]},
    {"sequence": "HMNDLKEDTITVQSVEYIDSDDGTMVYIKDTNHQVYKQAFKEDESLIRISAGDVLHVKYQPMDNEIHLL", "values": [
      {"measurement": "soluble fraction (log2)", "result": -0.364}
    ]},
    {"sequence": "HMNDMPELLSIKEASQWATEYLNKNVTTSNIAYLIQYGRIRKIGNNGSTQVLKDDLVKYYKDQK", "values": [
      {"measurement": "soluble fraction (log2)", "result": -0.139}
    ]},
    {"sequence": "HMNDMWADITINANGKATLVVHTHEIKYLGLTGHLGKMEINGTAKEPVKDSSGDVVDYYFTFTDLDASMF", "values": [
      {"measurement": "soluble fraction (log2)", "result": 0.0763}
    ]},
    {"sequence": "HMNDNFTPDDLNRLARIKDLPQAKKYALELISNKSAKPMKPEKVRWFANQLQKKKSVMDITKMMYDLLLA", "values": [
      {"measurement": "soluble fraction (log2)", "result": -0.0441}
    ]},
    {"sequence": "HMNDNTAINEFKKMVFTRMVHLQIDNAELSKLSGVTNSKILALKYGNSNTLKLGDIVKVAKTLNINLNDL", "values": [
      {"measurement": "soluble fraction (log2)", "result": -2.7}
    ]},
    {"sequence": "HMNDPFVILGVSKDASQSEILEAYKQKRAYYQERVFDEGDEGAQAARMLTQLDDAYQQAMELSHES", "values": [
      {"measurement": "soluble fraction (log2)", "result": -0.151}
    ]},
    {"sequence": "HMNDPIESLTPREREVLTLMAEGRTNAAIAAQLVVTEGAVEKHTQHIFAKLGLLPDSAVHRRVKAVLALLS", "values": [
      {"measurement": "soluble fraction (log2)", "result": -1.75}
    ]},
    {"sequence": "HMNDPNAPITENQLKAIHVLLDKLKVDDNLKHAYIADVLQLDNEPETLKTLTKAQGSMAIERMQLLKDN", "values": [
      {"measurement": "soluble fraction (log2)", "result": 0.328}
    ]},
    {"sequence": "HMNDQLIYSDFIRQVQDGQITEVTISGLNIAGTRSDGSVFNTLRPYIEDPKLIDDLLSHNVRIQGAE", "values": [
      {"measurement": "soluble fraction (log2)", "result": -0.2}
    ]},
    {"sequence": "HMNDRERIGKRIAQLRMEAGISQYKLAELTGLAPGNIARIETGKYSTGIDILSKIGDALGYQLDFI", "values": [
      {"measurement": "soluble fraction (log2)", "result": -1.04}
    ]},
    {"sequence": "HMNDRLAGMEGQRGEAATNFDQGEGKVKVGDTVWLAKQSDSTVIVEGDQIVVTGSENGLLKVRL", "values": [
      {"measurement": "soluble fraction (log2)", "result": -0.165}
    ]},
    {"sequence": "HMNDTLGVNIKRLRKEKGMTQDEVAKAVYTTRYNILRYESGKMTPSSEVIERLEKALGVPTGSLAQ", "values": [
      {"measurement": "soluble fraction (log2)", "result": -0.332}
    ]},
    {"sequence": "HMNDTSLIIDNLMLKLGNNIKNFSEIYSLLRKNLAEYGEEFIKSKVDYVLKNFNDNIEENLKKLLTE", "values": [
      {"measurement": "soluble fraction (log2)", "result": -0.218}
    ]},
    {"sequence": "HMNDVGKVLNQLGERDRMILLLTYWDELPLKEAARILEVSENNAKIILFRARSRFASLWSAGS", "values": [
      {"measurement": "soluble fraction (log2)", "result": -3.13}
    ]},
    {"sequence": "HMNEAVVVPDVKGLTLDEADEFFKNSKLRYNVVDSVFSKDVAPGAIVELVPVAGSKVKENRIVFVTINAQ", "values": [
      {"measurement": "soluble fraction (log2)", "result": -0.17}
    ]},
    {"sequence": "HMNEDTEDIKNINSLVNKLTENNFDIIRDSIVKLINKEHLIPYIIETIIEKSILHHRYVHLYVSILKE", "values": [
      {"measurement": "soluble fraction (log2)", "result": 0.0794}
    ]},
    {"sequence": "HMNEDYSSMVGKTGFALTILRPAGKIMIEEEVFDAVAINGYISKGQEVEVVRYENAQLYVKVK", "values": [
      {"measurement": "soluble fraction (log2)", "result": -0.386}
    ]},
    {"sequence": "HMNEFGIPDKKLQDIETRVNSMSLEQLNAARSMLIDEQEALNSSTGSASSGRLKEIAAELSTIQKALIAIA", "values": [
      {"measurement": "soluble fraction (log2)", "result": 0.163}
    ]},
    {"sequence": "HMNEFNEVVPDSLEGERLDRLLAFIGNISRSEASNIIKGGEVLINGKVVTRPSFKVTLGNRVEFSIRD", "values": [
      {"measurement": "soluble fraction (log2)", "result": -0.387}
    ]},
    {"sequence": "HMNEGETLYRLRAGDGRARLDKFLAAALPDISRTRFKGLIESGHVRVGGETITEPAYRVKSEAEVELTVPE", "values": [
      {"measurement": "soluble fraction (log2)", "result": 0.0139}
    ]},
    {"sequence": "HMNEIALETAIEDVESFIQMQNRNLAFSIDEDTDRAVVTVRDSDSGDVIRQIPSEEVLALAERIQDLQQD", "values": [
      {"measurement": "soluble fraction (log2)", "result": 0.136}
    ]},
    {"sequence": "HMNEIDDYDIQLLEYLSKGVSQEAMESVFKQAGITPNSKSTIEKRISKLKIYFKALNTTHLVSITKDLGL", "values": [
      {"measurement": "soluble fraction (log2)", "result": -0.642}
    ]},
    {"sequence": "HMNEKEAEEAAEAQTEVPDVTGMAPAQAKNMLYQAGLSSEYRGEGETVSRQLPPAGETVNRGTKAVLYL", "values": [
      {"measurement": "soluble fraction (log2)", "result": 0.0278}
    ]},
    {"sequence": "HMNEKGTNSTINEITRISKPGRRVYVGSAEIPKVKSGRGLVLISTSKGVMTGAEAAKAKLGGELLLKV", "values": [
      {"measurement": "soluble fraction (log2)", "result": 0.0901}
    ]},
    {"sequence": "HMNEKMKEIGLRIKELRELSDISAQGMADHLKIPLETYQEYEDGKKDIPASILFEISQKMEVDMGLLLTGE", "values": [
      {"measurement": "soluble fraction (log2)", "result": -0.0988}
    ]},
    {"sequence": "HMNELTDKQILLFSNKLAHNIPFSSKYSKPGESYEEFAERLANELIDPQKVKLYKPYLEEVGFK", "values": [
      {"measurement": "soluble fraction (log2)", "result": 0.302}
    ]},
    {"sequence": "HMNEMIFNQKKIGQFFMNPETNSPMIYPLELGHKMKIIELKNGWYNVTDEKTGLNGWVKEEDFGVTKPLDS", "values": [
      {"measurement": "soluble fraction (log2)", "result": -0.205}
    ]},
    {"sequence": "HMNENDENLRQQAIDASKEVRRWGEPVTLPPMNAHDRRIIHITLEGESDLQTESTGEGNFKSVVISLK", "values": [
      {"measurement": "soluble fraction (log2)", "result": -0.111}
    ]},
    {"sequence": "HMNEPSSYGYAISVALDRNGLGTVKGGTLYPLLARLEQAAHVETRWEAGDGGPGRKYYTITDSGRS", "values": [
      {"measurement": "soluble fraction (log2)", "result": -0.201}
    ]},
    {"sequence": "HMNERLKQLRLSLNLNQEEFGKWLGISKSGVSDIESGRRKVTEQHIIMLSNHNISEKWLRTGEGEMFV", "values": [
      {"measurement": "soluble fraction (log2)", "result": -0.0803}
    ]},
    {"sequence": "HMNETNKMPNLVNQTDSSAIAQLNAMELGLKITTKEESSETVLAGYVIRTEPAADTELTKNQAVTVYVS", "values": [
      {"measurement": "soluble fraction (log2)", "result": 0.00616}
    ]},
    {"sequence": "HMNETTVPDVINQNISTGKIIIEDADLEYRIQYIPSEKSSSIGTIINSIPIYGKRVKSGTIVDLKVLG", "values": [
      {"measurement": "soluble fraction (log2)", "result": -0.0142}
    ]},
    {"sequence": "HMNETVTNQTVLDLLKEGFTSEEIIGAIENSSTRTITYDINFMRQLKAAGADVTLTTYLQKIAKKDM", "values": [
      {"measurement": "soluble fraction (log2)", "result": -0.13}
    ]}
  ]
}
